# System: DQ elastin
# Experiment: In vitro elastin degradation assay
# Format: biochemical
# Procedure: Therefore, studies were performed to determine whether HTRA1 degrades elastin, a major component of Bruch's membrane. Recombinant HTRA1 was incubated with dye-labeled elastin at 37° C. for two hrs and the fluorescence of the released elastin peptides was monitored at 513 nm. […] In an additional positive control assay, HTRA1 elastase activity was measured by fluorescence using various concentrations of elastase enzyme starting with 0.04 ng/well of porcine pancreatic elastase and 100 ng/well of Protealmmun HtrA1. DQ Elastin substrate was 25 ug/ml.
# Recombinant HtrA1 protein expressed and purified from Sf9 cells was purchased from Protealmmun (Cat. #30600103). The HtrA1 elastase activity was measured using a fluorescent EnzChekElastase Assay Kit from Invitrogen (Cat. #E12056) using the protocol provided, except substrate concentration was 12.50 ? g/mL. HtrA1 concentration was titrated from 200-12.5 ng/well in two-fold dilutions. Activity was measured in 30-minute increments for a total of 2 hours.
# The explanation for the elastin degradation in both the Bruch's membrane and the choroid vessels in the HTRA1 mice is that the protease activity of overexpressed HTRA1, which is secreted from RPE, caused the degeneration. Since HTRA1 was not known to have elastase activity, an in vitro elastin degradation assay was performed using DQ elastin, a soluble elastin labeled with quenched BODIPY FL dye, as a substrate. Purified recombinant human HTRA1 degraded elastin with a specific activity of 4.4±0.8 u/mg (n=3). […] To eliminate the possibility that the depletion of the elastic layers of the choroidal vessels and Bruch's membrane was the result of downregulation of elastin expression, we analyzed the protein level of soluble elastin in the RPE/choroid of hHTRA1^+ and WT mice by western blot. […] This is similar to what has been observed in human donors with AMD and with aberrant choriocapillaris lobules.
Substance,Elastase specific activity (DQ elastin substrate) [u/mg],"Degradation of dye-labeled elastin (37° C. for two hrs, fluorescence at 513 nm)","Elastase activity, times less than porcine pancreas elastase (DQ elastin substrate) [times]"
porcine pancreas elastase: reference elastase enzyme [reference compound],135±5.5,–,–
recombinant human HTRA1: purified recombinant human HTRA1 serine protease,4.4±0.8,degraded dye-labeled elastin,~30

# Reference: patent publication US20210353712A1, “METHODS OF DIAGNOSING AND TREATING VASCULAR ASSOCIATED MACULOPATHY AND SYMPTOMS THEREOF” (University of Utah Research Foundation, priority 2011, published 2021)
